The target in this experiment is S protein of SARS-CoV (Urbani strain) on virus (SARS-CoV (Urbani strain)) (UniProt P59594). Put plainly: cell-based or functional assay.

80R IgG1 (antibody) gave a micro-neutralization assay: fold more effective than 80R scFv on a molar basis of 20 fold.

Source of the values: patent US20050249739A1.
